PMC5828360 (PLoS ONE, 2018)
Bridges are numbered along the chain shown (N, C = ends). [ ]: non-standard residue; d: D form. The star is where a group is joined. Pen = CC(C)(S)[C@H](N)C(=O)O; Thz = O=C(O)[C@@H]1CSCN1; Propionyl = CCC(=O)*

B1: VH4127 synthetic cyclic peptide (peptide)
chain: Propionyl-[dC]M[Thz]RLRG[Pen]-NH2
modifications: disulfide 1-8
B2: VH434 synthetic cyclic peptide (peptide)
peptide: Propionyl-CMPRLRGC-NH2
modifications: disulfide 1-8 (inferred)
notes: 8-residue truncation of VH411; source: synthetic peptide
B3: VH445 synthetic cyclic peptide (peptide)
peptide: Propionyl-[dC]MPRLRGC-NH2
modifications: disulfide 1-8
notes: printed cMPRLRGC, lower case c = (D)-Cys; also called VH0445; source: synthetic peptide

target: T1, recombinant mouse LDLR (His-tagged), extracellular domain (mouse, UniProt P35951 22-790); experiment: SPR; hLDLR or mLDLR (His-tagged) immobilised on a NiHC sensor chip at 35-60 fmol/mm^2; Biacore T200, 25°C; 50 mM HEPES-NaOH pH7.4, 150 mM NaCl, 0.005% Tween-20, 50μM EDTA; single-cycle kinetics; 1:1 Langmuir model; details: both partners purified
T1 construct: mouse low-density lipoprotein receptor, extracellular domain; immobilised on a NiHC sensor chip; in the functional rows it stands for the endogenous LDLR of the mouse; also called mLDLR; murine LDLR; source: bought: Sino Biological
T1 sequence (P35951 22-790): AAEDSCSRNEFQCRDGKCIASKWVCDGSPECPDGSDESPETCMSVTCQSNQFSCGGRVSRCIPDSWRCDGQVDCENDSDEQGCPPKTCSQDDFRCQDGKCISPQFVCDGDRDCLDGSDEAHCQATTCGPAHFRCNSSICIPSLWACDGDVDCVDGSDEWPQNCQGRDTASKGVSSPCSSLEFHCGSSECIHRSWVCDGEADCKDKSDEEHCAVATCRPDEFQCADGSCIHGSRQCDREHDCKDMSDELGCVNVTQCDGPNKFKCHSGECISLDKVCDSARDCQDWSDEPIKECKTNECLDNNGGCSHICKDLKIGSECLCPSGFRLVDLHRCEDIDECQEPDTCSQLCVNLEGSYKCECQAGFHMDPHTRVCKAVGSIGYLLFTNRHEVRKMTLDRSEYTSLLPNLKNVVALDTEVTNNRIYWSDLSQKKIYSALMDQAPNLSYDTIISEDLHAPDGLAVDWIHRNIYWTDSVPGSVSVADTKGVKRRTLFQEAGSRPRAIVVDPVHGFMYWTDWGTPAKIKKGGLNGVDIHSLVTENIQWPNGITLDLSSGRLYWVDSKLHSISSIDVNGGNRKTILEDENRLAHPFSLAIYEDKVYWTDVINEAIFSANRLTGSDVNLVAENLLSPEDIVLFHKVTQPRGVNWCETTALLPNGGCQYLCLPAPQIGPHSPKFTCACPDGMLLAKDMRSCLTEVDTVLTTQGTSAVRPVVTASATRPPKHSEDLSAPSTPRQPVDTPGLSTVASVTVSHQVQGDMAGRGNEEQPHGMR

Row | Kd [nM] | Binder
1 | 36 ± 1 | B1
2 | 280 ± 33 | B2
3 | 233 ± 24 | B3
